Laboratory results published in US20250257126A1 (CAMBRIDGE ENTERPRISE, published 2025).

Legend:
[1] = target: T1, human LGR5-eGFP transgene (human, UniProt O75473 22-907); test: western blot of lysates of HEK293T cells expressing mLGR5, hLGR5 or cynoLGR5 transgenes, probed with hybridoma clone 3
T1 construct: Tested on live or fixed cells and as cell lysates on western blots; also called hLGR5-eGFP; LGR5-GFP
T1 sequence: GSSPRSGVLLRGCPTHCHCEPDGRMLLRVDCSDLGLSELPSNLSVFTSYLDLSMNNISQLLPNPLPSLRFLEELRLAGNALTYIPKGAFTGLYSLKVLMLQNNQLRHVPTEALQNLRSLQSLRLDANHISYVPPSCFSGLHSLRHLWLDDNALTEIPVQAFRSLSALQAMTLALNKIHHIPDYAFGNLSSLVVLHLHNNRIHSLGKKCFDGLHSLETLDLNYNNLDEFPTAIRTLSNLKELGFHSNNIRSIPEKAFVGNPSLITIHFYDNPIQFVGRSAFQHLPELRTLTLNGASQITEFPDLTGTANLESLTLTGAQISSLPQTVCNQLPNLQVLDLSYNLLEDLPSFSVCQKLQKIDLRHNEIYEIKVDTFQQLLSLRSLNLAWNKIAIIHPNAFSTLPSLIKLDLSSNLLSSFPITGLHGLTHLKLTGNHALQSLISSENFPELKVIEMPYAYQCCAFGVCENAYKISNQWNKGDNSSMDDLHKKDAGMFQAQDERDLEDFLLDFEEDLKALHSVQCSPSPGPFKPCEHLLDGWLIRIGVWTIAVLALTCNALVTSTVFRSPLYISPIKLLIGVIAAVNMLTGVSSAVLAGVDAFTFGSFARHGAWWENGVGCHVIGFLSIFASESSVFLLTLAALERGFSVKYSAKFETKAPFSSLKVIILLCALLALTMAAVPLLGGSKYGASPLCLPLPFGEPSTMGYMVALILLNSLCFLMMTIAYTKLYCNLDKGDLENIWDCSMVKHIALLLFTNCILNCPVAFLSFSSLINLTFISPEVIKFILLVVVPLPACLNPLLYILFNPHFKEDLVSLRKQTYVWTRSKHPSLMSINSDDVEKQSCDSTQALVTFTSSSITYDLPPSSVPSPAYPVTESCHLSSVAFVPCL

murine LGR5 transgene [2] = target: T2, murine LGR5 transgene (mouse, UniProt Q9Z1P4 22-907); test: as above
T2 construct: whole, on cells; Overexpressed in HEK293T cells with N-terminal HA tag, V2 receptor tail and eGFP; also tested as lysate; also called mLGR5; mLGR5-eGFP
T2 sequence (looked up): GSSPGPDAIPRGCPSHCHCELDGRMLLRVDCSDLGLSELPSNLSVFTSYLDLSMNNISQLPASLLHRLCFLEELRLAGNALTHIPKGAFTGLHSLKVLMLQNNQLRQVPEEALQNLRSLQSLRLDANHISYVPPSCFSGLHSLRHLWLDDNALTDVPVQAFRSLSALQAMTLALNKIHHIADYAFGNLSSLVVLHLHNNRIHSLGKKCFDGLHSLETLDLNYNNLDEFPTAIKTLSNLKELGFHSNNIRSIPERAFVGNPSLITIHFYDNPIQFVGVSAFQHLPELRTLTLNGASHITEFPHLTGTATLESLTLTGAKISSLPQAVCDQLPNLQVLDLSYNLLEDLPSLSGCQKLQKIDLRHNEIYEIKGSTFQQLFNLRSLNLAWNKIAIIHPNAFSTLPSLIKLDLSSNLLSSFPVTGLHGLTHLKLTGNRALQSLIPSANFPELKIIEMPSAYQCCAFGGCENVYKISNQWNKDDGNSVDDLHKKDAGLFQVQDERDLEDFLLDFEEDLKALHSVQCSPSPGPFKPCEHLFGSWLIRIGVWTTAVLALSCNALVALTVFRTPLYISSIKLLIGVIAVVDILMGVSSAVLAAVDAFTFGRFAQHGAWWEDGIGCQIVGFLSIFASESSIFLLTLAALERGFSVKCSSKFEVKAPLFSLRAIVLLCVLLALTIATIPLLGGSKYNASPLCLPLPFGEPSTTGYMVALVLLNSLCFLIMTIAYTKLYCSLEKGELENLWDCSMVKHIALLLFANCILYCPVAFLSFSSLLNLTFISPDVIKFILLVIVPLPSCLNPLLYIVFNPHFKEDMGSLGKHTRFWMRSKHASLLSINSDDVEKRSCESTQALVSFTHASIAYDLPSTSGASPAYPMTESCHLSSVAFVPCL

human LGR4 transgene = target: T3, human LGR4 transgene (human, UniProt Q9BXB1 25-951); test: immunofluorescence of HEK293T cells expressing LGR-eGFP transgenes with α-LGR5v4
T3 construct: whole, on cells; Overexpressed in HEK293T cells with N-terminal HA tag, V2 receptor tail and eGFP; also tested as lysate; also called hLGR4; LGR4-eGFP
Description: (§1) B. Indirect immune fluorescence analysis of human and murine LGR family expressing HEK293T cells using the a-LGR5v4 antibody (in red), the Alexa488-coupled Phalloidin F-actin probe alongside eGFP fluorescence imaging. In the bottom row of images, LGR5-expressing HEK293T cells were stained with a-LGR5v6. C. H&E staining of tissue sections from a-LGR5v6-ADC (top row) and a-LGR5v4-ADC (bottom row) treated mice.

murine LGR4 transgene = target: T4, murine LGR4 transgene (mouse, UniProt A2ARI4 25-951); test: as above
T4 construct: whole, on cells; Overexpressed in HEK293T cells with N-terminal HA tag, V2 receptor tail and eGFP; also tested as lysate; also called mLGR4
Description: as §1

[3] = target: T5, endogenous human LGR5 of cancer cell lines (human, UniProt O75473 22-907); test: flow cytometry of LoVo and NALM6 cells after 60 minutes with fluorescent antibodies, α-HER2 against α-LGR5
T5 construct: Untagged LGR5 as expressed by human LoVo, NALM6, REH cells and CRC organoids; also called LGR5 on LoVo cells; LGR5 on NALM6 cells
T5 sequence: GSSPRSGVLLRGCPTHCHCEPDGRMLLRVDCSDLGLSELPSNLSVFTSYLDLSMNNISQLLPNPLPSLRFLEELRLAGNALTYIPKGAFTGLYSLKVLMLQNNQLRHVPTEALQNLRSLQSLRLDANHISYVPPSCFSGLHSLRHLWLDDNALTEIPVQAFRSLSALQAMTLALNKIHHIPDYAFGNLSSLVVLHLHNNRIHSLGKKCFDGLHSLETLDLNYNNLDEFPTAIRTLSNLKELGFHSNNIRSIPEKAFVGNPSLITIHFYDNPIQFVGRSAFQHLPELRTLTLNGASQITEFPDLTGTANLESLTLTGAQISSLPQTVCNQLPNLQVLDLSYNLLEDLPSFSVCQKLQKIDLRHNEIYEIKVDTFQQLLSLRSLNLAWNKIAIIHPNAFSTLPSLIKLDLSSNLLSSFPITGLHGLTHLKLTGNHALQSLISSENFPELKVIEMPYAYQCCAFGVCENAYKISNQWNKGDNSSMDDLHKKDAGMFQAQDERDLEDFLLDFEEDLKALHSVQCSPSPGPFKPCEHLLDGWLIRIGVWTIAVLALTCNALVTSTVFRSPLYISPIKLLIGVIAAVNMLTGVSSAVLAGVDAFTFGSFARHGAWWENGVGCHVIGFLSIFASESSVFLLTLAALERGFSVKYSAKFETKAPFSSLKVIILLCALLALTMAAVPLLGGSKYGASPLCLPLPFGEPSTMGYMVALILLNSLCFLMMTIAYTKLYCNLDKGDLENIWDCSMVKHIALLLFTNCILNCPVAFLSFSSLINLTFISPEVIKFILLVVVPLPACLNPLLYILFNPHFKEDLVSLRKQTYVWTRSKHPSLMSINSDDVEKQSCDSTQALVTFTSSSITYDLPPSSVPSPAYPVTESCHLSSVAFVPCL

[4] = target: T1, human LGR5-eGFP transgene; test: western blot of lysates of HEK293T cells expressing mLGR5, hLGR5 or cynoLGR5 transgenes, probed with α-LGR5v4
Procedure: as §1
(§2) Western blots of HEK293t, LoVo and NALM6 lysates was carried out with 40 μg of protein.

murine LGR5 transgene [5] = target: T2, murine LGR5 transgene; test: as above
Procedure: as §1, §2

murine LGR5 transgene [6] = target: T2, murine LGR5 transgene; test: western blot of lysates of HEK293T cells expressing the LGR transgenes

B1: α-LGR5 clone 3 (antibody, mouse IgG1, kappa, V domains shown)
VH: QVQLQQPGAELVKPGASVKLSCKASGYTFTSYWMQWVKQRPGQGLEWIGEIDPSDSYSNYNQKFKGKATLTVDTSSSTAYMQLSSLTSEDSAVYYCARSLSGYVDYWGQGTTLTVSS
VL: DIQMTQTTSSLSASLGDRVTISCRASQDISNRLNWYQQKPDGTVKLLISYRSRLQSGVPSRFSGSGSGTDYSLTISNLEEEDIATYFCQQGNTLPPTFGGGTKLEVRR
notes: Murine monoclonal antibody from hybridoma; also called hybridoma clone 3; antibody 3
binding result [1]: binds
binding result (murine LGR5 transgene [2]): no binding

B2: α-LGR5 variant 4 (antibody, human IgG1, kappa, V domains shown)
VH: QVQLVQSGAEVKKPGASVKVSCKASGYTFTNYWMQWVRQAPGQGLEWIGEIDPSDSYTNYNQKFQGRVTLTVDTSTSTAYMELSSLRSEDTAVYYCARSLSGYVDYWGQGTTVTVSS
VL: EIVMTQSPATLSLSPGERATLSCRASQDISNRLNWYQQKPGQAVRLLISYRSRRHTGIPARFSGSGSGTDYTLTISSLEPEDFAVYYCQQGNSLPPTFGGGTKLEIKR
notes: Humanized antibody; also called α-LGR5v4; clone 2.4
binding result (human LGR4 transgene): no binding
binding result (murine LGR4 transgene): no binding
binding result [3]: binds
binding result [4]: binds
binding result (murine LGR5 transgene [5]): no binding

B3: hybridoma clone 12 (antibody, V domains shown)
VH: EVQLQQSGPELVKPGASVKISCKASGYTFTDYYMNWVKQSHGKSLEWIGDINPNNGGTIYNQKFKGKATLTVDKSSSTAYMELRSLTSEDSAVYYCASGYLFDYWGPGTTLTVSS
VL: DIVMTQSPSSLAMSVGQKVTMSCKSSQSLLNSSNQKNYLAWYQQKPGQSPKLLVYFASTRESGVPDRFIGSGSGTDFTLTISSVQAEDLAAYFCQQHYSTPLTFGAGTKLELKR
notes: Murine antibody; also called antibody 12
binding result (murine LGR5 transgene [6]): no binding
